# Laboratory results: article PMC9472132 (Journal for Immunotherapy of Cancer, 2022)
# Read-outs that look alike come from different tables or passages of the source.
# B1: MK-5890 (humanized anti-human CD27 agonist antibody, hIgG1) (antibody, V domains shown)
# VH: EIQLVQSGAEVKKPGASVKVSCKASGYTFTNYGMNWVKQAPGQGLKWMGWINTNTGEPTYAEEFKGRFTFTLDTSISTAYMELSSLRSEDTAVYYCAREGDAMDYWGQGTTVTVSS
# VL: EIVLTQSPATLSLSPGERATLSCSASSSVSYMHWYQQKPGQAPKRWIYDTSKLASGVPARFSGSGSGTDYSLTISSLEPEDFAVYYCQQWNSYPFTFGQGTKLEIK
# B2: varlilumab analog (anti-CD27 fully human IgG1 antibody, made in-house from published patented sequences) (antibody, V domains shown)
# VH: QVQLVESGGGVVQPGRSLRLSCAASGFTFSSYDMHWVRQAPGKGLEWVAVIWYDGSNKYYADSVKGRFTISRDNSKNTLYLQMNSLRAEDTAVYYCARGSGNWGFFDYWGQGTLVTVSS
# VL: DIQMTQSPSSLSASVGDRVTITCRASQGISRWLAWYQQKPEKAPKSLIYAASSLQSGVPSRFSGSGSGTDFTLTISSLQPEDFATYYCQQYNTYPRTFGQGTKVEIK
# Assays:
# [1] = target: T1, human CD27 on primary peripheral blood T cells (Homo sapiens (Human)., UniProt P26842); experiment: flow cytometry on cells
# [2] = target: T2, rhesus monkey CD27 on primary peripheral blood T cells (Macaca mulatta, UniProt F7BYS2); experiment: flow cytometry on cells
# [3] = target: T1, human CD27 on primary peripheral blood …; experiment: flow cytometry on cells; remark: listed apart in the source
# [4] = target: T2, rhesus monkey CD27 on primary …; experiment: flow cytometry on cells; remark: listed apart in the source
# [5] = target: T3, human CD27 expressed on CHO-K1 cells (human, UniProt P26842); experiment: flow cytometry on cells
# [6] = target: human CD27-IgG fusion protein (Homo sapiens (Human)., UniProt P26842); experiment: SPR
# [7] = target: rhesus monkey CD27-IgG fusion protein (Macaca mulatta, UniProt F7BYS2); experiment: SPR
# [8] = target: T3, human CD27 expressed on CHO-K1 cells; experiment: ELISA
# [9] = target: rhesus monkey CD27 expressed on CHO-K1 cells (Macaca mulatta, UniProt F7BYS2); experiment: ELISA
Binder,EC50 [1] [pM],EC50 [2] [pM],EC50 [3] [pM],EC50 [4] [pM],IC50 [5] [pM],Kd [6] [pM],koff [6] [s⁻¹],kon [6] [M⁻¹ s⁻¹],Kd [7] [pM],koff [7] [s⁻¹],kon [7] [M⁻¹ s⁻¹],EC50 [8] [pM],EC50 [9] [pM]
B1,300,220,320,170,240,5100,0.0011,220000,4300,0.001,230000,72,54
B2,1300,1920,1540,1580,2850,630,0.00012,190000,970,0.00022,230000,325,193
